Reference: patent US11306156

What was measured:
[1] = target: D3H44 light chain Q124E_Q160E_T180E with N-terminal HA or FLAG tag; test: LCCA (SPR tag readout), L1:L2 DNA 1:3, normalized to 1:1; competing light chain m15
[2] = target: D3H44 light chain T178R with N-terminal HA or FLAG tag; test: LCCA (SPR tag readout), L1:L2 DNA 1:9, normalized to 1:1; competing light chain m18
[3] = target: D3H44 light chain Q124R_T178R with N-terminal HA or FLAG tag; test: as above
[4] = target: D3H44 light chain Q124R_T178K with N-terminal HA or FLAG tag; test: as above
[5] = target: D3H44 light chain Q124R_T178R with N-terminal HA or FLAG tag; test: LCCA (SPR tag readout), L1:L2 DNA 1:3, normalized to 1:1; competing light chain m11
[6] = target: D3H44 light chain T178R with N-terminal HA or FLAG tag; test: LCCA (SPR tag readout), L1:L2 DNA 1:3, normalized to 1:1; competing light chain m18
[7] = target: D3H44 light chain Q124R_T178R with N-terminal HA or FLAG tag; test: as above
[8] = target: D3H44 light chain Q124R_T178K with N-terminal HA or FLAG tag; test: as above
[9] = target: D3H44 light chain Q124E_Q160E_T180E with N-terminal HA or FLAG tag; test: LCCA (SPR tag readout), L1:L2 DNA 1:9, normalized to 1:1; competing light chain m9
[10] = target: D3H44 light chain Q124E_T178E with N-terminal HA or FLAG tag; test: as above
[11] = target: D3H44 light chain Q124E_T180E with N-terminal HA or FLAG tag; test: as above
[12] = target: D3H44 light chain Q124E_T180E with N-terminal HA or FLAG tag; test: LCCA (SPR tag readout), L1:L2 DNA 1:3, normalized to 1:1; competing light chain m12
[13] = target: D3H44 light chain Q124E_Q160E_T180E with N-terminal HA or FLAG tag; test: LCCA (SPR tag readout), L1:L2 DNA 1:9, normalized to 1:1; competing light chain m19
[14] = target: D3H44 light chain Q124E_T180E with N-terminal HA or FLAG tag; test: LCCA (SPR tag readout), L1:L2 DNA 1:3, normalized to 1:1; competing light chain m14
[15] = target: D3H44 light chain Q124R_T178R with N-terminal HA or FLAG tag; test: LCCA (SPR tag readout), L1:L2 DNA 1:9, normalized to 1:1; competing light chain m11
[16] = target: D3H44 light chain T178R with N-terminal HA or FLAG tag; test: LCCA (SPR tag readout), L1:L2 DNA 1:3, normalized to 1:1; competing light chain m13
[17] = target: D3H44 light chain Q124R_Q160K_T178R with N-terminal HA or FLAG tag; test: as above
[18] = target: D3H44 light chain Q124K_T178R with N-terminal HA or FLAG tag; test: as above
[19] = target: D3H44 light chain Q124R_T178R with N-terminal HA or FLAG tag; test: as above
[20] = target: D3H44 light chain Q124R_T178R with N-terminal HA or FLAG tag; test: LCCA (SPR tag readout), L1:L2 DNA 1:9, normalized to 1:1; competing light chain m13
[21] = target: D3H44 light chain Q124E_Q160E_T180E with N-terminal HA or FLAG tag; test: LCCA (SPR tag readout), L1:L2 DNA 1:3, normalized to 1:1; competing light chain m19
[22] = target: D3H44 light chain Q124E_T180E with N-terminal HA or FLAG tag; test: as above
[23] = target: D3H44 light chain Q124E_Q160E_T180E with N-terminal HA or FLAG tag; test: LCCA (SPR tag readout), L1:L2 DNA 1:9, normalized to 1:1; competing light chain m15
[24] = target: D3H44 light chain Q124E_Q160E_T180E with N-terminal HA or FLAG tag; test: LCCA (SPR tag readout), L1:L2 DNA 1:3, normalized to 1:1; competing light chain m9
[25] = target: D3H44 light chain Q124E_T178E with N-terminal HA or FLAG tag; test: as above
[26] = target: D3H44 light chain Q124E_T180E with N-terminal HA or FLAG tag; test: as above
[27] = target: D3H44 light chain Q124E_T180E with N-terminal HA or FLAG tag; test: LCCA (SPR tag readout), L1:L2 DNA 1:3, normalized to 1:1; competing light chain m15
[28] = target: D3H44 light chain Q124R_T178R with N-terminal HA or FLAG tag; test: LCCA (SPR tag readout), L1:L2 DNA 1:3, normalized to 1:1; competing light chain m16
[29] = target: D3H44 light chain Q124R_T178R with N-terminal HA or FLAG tag; test: LCCA (SPR tag readout), L1:L2 DNA 1:9, normalized to 1:1; competing light chain m16
[30] = target: D3H44 light chain Q124R_T178R with N-terminal HA or FLAG tag; test: LCCA (SPR tag readout), L1:L2 DNA 1:3, normalized to 1:1; competing light chain m10
[31] = target: D3H44 light chain Q124K_T178R with N-terminal HA or FLAG tag; test: LCCA (SPR tag readout), L1:L2 DNA 1:9, normalized to 1:1; competing light chain m18
[32] = target: D3H44 light chain Q124K_T178R with N-terminal HA or FLAG tag; test: LCCA (SPR tag readout), L1:L2 DNA 1:3, normalized to 1:1; competing light chain m18
[33] = target: D3H44 light chain Q124E_T178E_T180E with N-terminal HA or FLAG tag; test: LCCA (SPR tag readout), L1:L2 DNA 1:9, normalized to 1:1; competing light chain m9
[34] = target: D3H44 light chain Q124E_V133D with N-terminal HA or FLAG tag; test: as above
[35] = target: D3H44 light chain Q124R_T178R with N-terminal HA or FLAG tag; test: LCCA (SPR tag readout), L1:L2 DNA 1:9, normalized to 1:1; competing light chain m10
[36] = target: D3H44 light chain Q124E_Q160E_T180E with N-terminal HA or FLAG tag; test: LCCA (SPR tag readout), L1:L2 DNA 1:3, normalized to 1:1; competing light chain m12
[37] = target: D3H44 light chain Q124R_T178K with N-terminal HA or FLAG tag; test: LCCA (SPR tag readout), L1:L2 DNA 1:3, normalized to 1:1; competing light chain m13
[38] = target: D3H44 light chain Q124E_Q160E_T180E with N-terminal HA or FLAG tag; test: LCCA (SPR tag readout), L1:L2 DNA 1:9, normalized to 1:1; competing light chain m12
[39] = target: D3H44 light chain Q124E_T178E_T180E with N-terminal HA or FLAG tag; test: LCCA (SPR tag readout), L1:L2 DNA 1:3, normalized to 1:1; competing light chain m9
[40] = target: D3H44 light chain Q124E_V133D with N-terminal HA or FLAG tag; test: as above

D3H44 Fab heavy chain S186K with C-terminal ABD2-His6 tag
H2L2:H2L1 normalized median ratio [1]: 92%
H2L2:H2L1 normalized median ratio [2]: 13%
H2L2:H2L1 normalized median ratio [3]: 6%
H2L2:H2L1 normalized median ratio [4]: 11%
H2L2:H2L1 normalized median ratio [5]: 4%
H2L2:H2L1 normalized median ratio [6]: 9%
H2L2:H2L1 normalized median ratio [7]: 6%
H2L2:H2L1 normalized median ratio [8]: 8%
H2L2:H2L1 normalized median ratio [9]: 94%
H2L2:H2L1 normalized median ratio [10]: 96%
H2L2:H2L1 normalized median ratio [11]: 89%
H2L2:H2L1 normalized median ratio [12]: 98%
H2L2:H2L1 normalized median ratio [13]: 87%
H2L2:H2L1 normalized median ratio [14]: 97%
H2L2:H2L1 normalized median ratio [15]: 4%
H2L2:H2L1 normalized median ratio [16]: 4%
H2L2:H2L1 normalized median ratio [17]: 3%
H2L2:H2L1 normalized median ratio [18]: 2%
H2L2:H2L1 normalized median ratio [19]: 6%
H2L2:H2L1 normalized median ratio [20]: 11%
H2L2:H2L1 normalized median ratio [21]: 91%
H2L2:H2L1 normalized median ratio [22]: 96%
H2L2:H2L1 normalized median ratio [23]: 89%
H2L2:H2L1 normalized median ratio [24]: 94%
H2L2:H2L1 normalized median ratio [25]: 96%
H2L2:H2L1 normalized median ratio [26]: 94%

D3H44 Fab heavy chain L143E_K145T_Q179E with C-terminal ABD2-His6 tag
H1L1:H1L2 normalized median ratio [27]: 16%
H1L1:H1L2 normalized median ratio [28]: 92%
H1L1:H1L2 normalized median scalar value ln(r1/f1) [28]: 2.41
H1L1:H1L2 normalized median ratio [29]: 88%
H1L1:H1L2 normalized median scalar value ln(r1/f1) [29]: 1.96
H1L1:H1L2 normalized median ratio [30]: 92%
H1L1:H1L2 normalized median scalar value ln(r1/f1) [30]: 2.46
H1L1:H1L2 normalized median ratio [2]: 75%
H1L1:H1L2 normalized median scalar value ln(r1/f1) [2]: 1.1
H1L1:H1L2 normalized median ratio [31]: 88%
H1L1:H1L2 normalized median scalar value ln(r1/f1) [31]: 2.02
H1L1:H1L2 normalized median ratio [5]: 86%
H1L1:H1L2 normalized median scalar value ln(r1/f1) [5]: 1.83
H1L1:H1L2 normalized median ratio [6]: 89%
H1L1:H1L2 normalized median scalar value ln(r1/f1) [6]: 2.14
H1L1:H1L2 normalized median ratio [32]: 88%
H1L1:H1L2 normalized median scalar value ln(r1/f1) [32]: 2
H1L1:H1L2 normalized median ratio [10]: 15%
H1L1:H1L2 normalized median ratio [11]: 17%
H1L1:H1L2 normalized median ratio [33]: 8%
H1L1:H1L2 normalized median ratio [34]: 12%
H1L1:H1L2 normalized median ratio [35]: 92%
H1L1:H1L2 normalized median scalar value ln(r1/f1) [35]: 2.45
H1L1:H1L2 normalized median ratio [36]: 12%
H1L1:H1L2 normalized median ratio [12]: 30%
H1L1:H1L2 normalized median ratio [13]: 25%
H1L1:H1L2 normalized median ratio [14]: 27%
H1L1:H1L2 normalized median ratio [15]: 85%
H1L1:H1L2 normalized median scalar value ln(r1/f1) [15]: 1.77
H1L1:H1L2 normalized median ratio [17]: 73%
H1L1:H1L2 normalized median scalar value ln(r1/f1) [17]: 1
H1L1:H1L2 normalized median ratio [18]: 70%
H1L1:H1L2 normalized median scalar value ln(r1/f1) [18]: 0.84
H1L1:H1L2 normalized median ratio [19]: 85%
H1L1:H1L2 normalized median scalar value ln(r1/f1) [19]: 1.75
H1L1:H1L2 normalized median ratio [37]: 84%
H1L1:H1L2 normalized median scalar value ln(r1/f1) [37]: 1.69
H1L1:H1L2 normalized median ratio [20]: 83%
H1L1:H1L2 normalized median scalar value ln(r1/f1) [20]: 1.59
H1L1:H1L2 normalized median ratio [21]: 11%
H1L1:H1L2 normalized median ratio [38]: 12%
H1L1:H1L2 normalized median ratio [25]: 14%
H1L1:H1L2 normalized median ratio [26]: 15%
H1L1:H1L2 normalized median ratio [39]: 8%
H1L1:H1L2 normalized median ratio [40]: 8%
